Where two headings read alike, the source gives them in different places.
Experiments:
Cdc15-eGFP [1] = target: T1, Cdc15-eGFP (S. cerevisiae, UniProt P27636 1-974); assay: AlphaScreen or HTRF
T1 sequence (looked up): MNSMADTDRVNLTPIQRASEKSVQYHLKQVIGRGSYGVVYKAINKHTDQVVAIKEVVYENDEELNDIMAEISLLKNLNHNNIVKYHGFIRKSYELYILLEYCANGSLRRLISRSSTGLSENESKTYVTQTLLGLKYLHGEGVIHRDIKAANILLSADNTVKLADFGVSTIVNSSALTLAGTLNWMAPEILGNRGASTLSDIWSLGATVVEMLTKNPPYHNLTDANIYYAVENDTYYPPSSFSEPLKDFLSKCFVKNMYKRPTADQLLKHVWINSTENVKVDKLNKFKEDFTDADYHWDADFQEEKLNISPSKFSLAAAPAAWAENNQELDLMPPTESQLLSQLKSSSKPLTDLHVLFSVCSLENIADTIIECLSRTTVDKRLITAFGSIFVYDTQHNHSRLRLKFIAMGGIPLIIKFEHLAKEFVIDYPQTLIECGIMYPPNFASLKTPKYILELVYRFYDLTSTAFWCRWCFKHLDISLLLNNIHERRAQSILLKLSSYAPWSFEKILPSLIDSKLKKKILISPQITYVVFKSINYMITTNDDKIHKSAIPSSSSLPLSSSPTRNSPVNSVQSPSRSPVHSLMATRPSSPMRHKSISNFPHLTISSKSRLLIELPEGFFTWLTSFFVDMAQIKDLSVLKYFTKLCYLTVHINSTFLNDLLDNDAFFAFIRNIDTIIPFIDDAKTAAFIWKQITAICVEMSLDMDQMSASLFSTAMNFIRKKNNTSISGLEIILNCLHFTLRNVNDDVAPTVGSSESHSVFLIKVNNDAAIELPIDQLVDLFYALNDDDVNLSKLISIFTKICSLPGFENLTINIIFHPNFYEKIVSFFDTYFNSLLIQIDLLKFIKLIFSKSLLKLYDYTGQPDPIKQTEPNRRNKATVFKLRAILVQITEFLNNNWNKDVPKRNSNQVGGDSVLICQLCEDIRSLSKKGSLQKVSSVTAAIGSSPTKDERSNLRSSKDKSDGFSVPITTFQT

Cdc15-eGFP [2] = target: T1, Cdc15-eGFP; assay: AlphaScreen or HTRF; remark: listed apart in the source

B1: Recombinant Tem1 (unlabeled) (natural protein, S. cerevisiae, UniProt P38987 1-245, looked up)
chain: MATPSTGANNSIPAVRNQVEVQVGLVGDAQVGKTSLMVKYVQNIYDKEYTQTLGVNFLKRKVSIRSTDIIFSIMDLGGQREFINMLPIATVGSSVIIFLFDLTRPETLSSIKEWYRQAYGLNDSAIPILVGTKYDLLIDLDPEYQEQISRTSMKYAQVMNAPLIFCSTAKSINIQKIFKIALAKIFNLTLTIPEINEIGDPLLIYKHLGGQQHRHHNKSQDRKSHNIRKPSSSPSSKAPSPGVNT
Question: With B1 as the binder, how does the Kd (Cdc15-eGFP [1]) read?
Answer: 3.9 ± 0.8 nM

Question: And the Kd (Cdc15-eGFP [2])?
Answer: 16 ± 3 nM
